2 molecules from US20090263894A1 (AbbVie / Abbott, published 2009) can be followed below.

Numbering of substitutions follows the chain as printed. A value given as a limit tells only on which side of the number the result lay.

Test [1] addresses T1, wild-type NGAL antigen displayed on yeast (AGA2 fusion) (human, UniProt P80188 21-198).
T1 construct: also called WT
The test is described as follows: flow cytometry titration of the mAb on yeast displaying the NGAL antigen, detection with GaM-PE, fractional binding. For orientation: A flow cytometer gives signals particle by particle.

In test [2] the target is T2, NGAL rAg S14A displayed on yeast (human, UniProt P80188 21-198).
T2 construct: Yeast display AGA2 fusion as m5
T2 chain: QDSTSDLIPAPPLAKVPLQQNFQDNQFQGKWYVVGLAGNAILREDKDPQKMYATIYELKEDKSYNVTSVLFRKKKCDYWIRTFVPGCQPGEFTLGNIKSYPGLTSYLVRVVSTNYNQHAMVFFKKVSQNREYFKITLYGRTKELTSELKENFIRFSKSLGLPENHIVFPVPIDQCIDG
The test is described as above.

In test [3] the target is T3, NGAL rAg S158A displayed on yeast (human, UniProt P80188 21-198).
T3 construct: Yeast display AGA2 fusion as m5
T3 chain: T2 chain with A14S, S158A
Described as above.

In test [4] the target is T4, human NGAL (C87S) produced in E. coli, NGAL(+)mut8 (human, UniProt P80188 21-198, 15N/2H or 13C/15N isotope label (NMR, Example 8); BHQ-10S quencher label (KD titrations, Example 9)).
T4 construct: also called BHQ-NGAL; isotope-labeled human NGAL
T4 chain: T2 chain with A14S, C87S
The test is described as follows: DC-FCCS sandwich formation in solution; second antibody mAb 809. The procedure:
Samples were placed in a 96-microwell optical bottom plate (Nalge Nunc International, Rochester, N.Y.). The excitation wavelength was set at 810 nm, 3 mW on the sample. Sampling rate was set at 200 KHz and 10 million points were collected for each measurement. Each sample was measured twice. Experiments were performed on each sample after one-hour incubation.
Labeled antibodies were mixed at equal concentration (40 μL of 10 nM mAbs) and ligand (15 nM NGAL) was added to the solution. Cross-correlation curves before and after adding NGAL were calculated from the data sets acquired in each channel and the data were normalized.
For illustration purposes, a relative number was assigned to each antibody pair, which, in fact, is the ratio of Gx(0) values before and after the addition of NGAL to the antibodies (Table 13). All ratio values were corrected for the background. A value of “1” indicates no sandwich formation, values between 1.1 and 2.5 indicate a poor sandwich formation, and all values above 2.6 indicate productive antibody pairing.

Test [5] has as its target T4, human NGAL (C87S) produced in E. coli, …. The test is described as follows: fluorescence quenching titration: ALEXA 488-mAb with BHQ-NGAL in solution. Here is the method: The equilibrium dissociation constants (KD) of NGAL and six anti-NGAL antibodies were measured in direct binding experiments. […] After 30 minutes incubation, all samples were measured on an SLM 8100 photon counting spectrofluorimeter. Samples were excited at 480 nm, and the emission was collected through a 530 nm (30 nm bandwidth) interference filter (Chroma Technology Corp., Rockingham, Vt.). All binding measurements were performed in 10 mM HEPES buffer, pH 7.4, containing 0.15 M NaCl, 3 mM EDTA, and 0.005% surfactant P20.
where Ligandₜₒₜₐₗ and ABSₜₒₜₐₗ are the BHQ-NGAL concentration and total antibody binding sites, respectively, and Fbound is the fraction of bound antibody sites. The binding data were fitted with a simple binding model to obtain the equilibrium dissociation constant (KD) according to equation [4]: […]

Test [6] deals with T5, NGAL rAg R109A displayed on yeast (human, UniProt P80188 21-198).
T5 construct: Yeast display AGA2 fusion as m5
T5 chain: T2 chain with A14S, R109A
The test is described as follows: flow cytometry, mAb titrated on yeast displaying NGAL; highest mAb concentration tested listed as KD. The source says: (§1) The side chain of each of the NGAL rAg residues identified from the epitope selections was altered by site-directed mutagenesis to alanine to confirm the functional epitope (direct contact residues) of each NGAL mAb subclone.
(§2) For these experiments, observed fluorescence (F) was used to solve for KD using equation [1]. The KD derived from equation [1] one was then used in equation [2] to derive the change in Gibbs free binding energy upon alanine substitution. The KD is read from the abscissa of each of the curves at the inflection point.

Test [7] deals with T6, NGAL rAg K15A displayed on yeast (human, UniProt P80188 21-198).
T6 construct: Yeast display AGA2 fusion as m5
T6 chain: T2 chain with A14S, K15A
The description is as above.
Text: as §1, §2

B1: anti-NGAL monoclonal antibody 1-903-430 (antibody, V domains shown)
VH: KIQLVQSGPELKKPGETVKISCKASGYTFTNYGMNWVKQAPGKGLKWMGWININTGEPTYAEEFKGRFAFSLETSATTAFLQINNLKNEDTATYLCARDSYSGGFDYWGQGTIVTVSS
VL: DIVMTQSPSSLSVSAGEKVTLSCKSSQSLLISGDQKNYLAWYQQKPGQPPKLLIYGASTRDSGVPDRFTGSGSGADFTLTISSVQAEDLAVYYCQNDHSFPPTFGAGTKLELKR
With B1, the results for the “EC50 (read off the curve)” value in test [1], in test [2] and in test [3] were roughly 200 pM, roughly 300 pM and roughly 200 pM, respectively. For the same molecule, in test [4], the “ratio of Gx(0) before and after adding NGAL” value stood at 3. Also, the dissociation constant (Kd) in test [5] was 1.2 nM; in test [6], greater than 5 µM; in test [7], greater than 5 µM.

B2: anti-NGAL monoclonal antibody 1-2322-455 (antibody, V domains shown)
VH: EVQLVESGGGLVQPGGSLKLSCAASGFTFNNYYMSWVRQTPERRLEWVAYISSSGGSTYYSDSVRGRFTISRDTARNTLYLQMTSLKSEDTAMYYCARHFGDYSYFDYWGQGTTLTVSS
VL: DIQMTQSPASLSASVGETVTITCRASENFYSYLAWYQQKQGKSPQLLVYNAKTLAEGVPSRFSGSGSGTQFSLKINSLQPEDFGTYYCQHHYDIPLTFGAGTKLELKR
With B2, the “ratio of Gx(0) before and after adding NGAL” value in test [4] was 1.5. The Kd in test [5] came to 0.06 nM.

A word on the EC50 (read off the curve): it is the concentration that produces a half-maximal response. High values mean lower potency in that assay, low ones higher potency in that assay. For orientation: Kd means the free concentration of one partner at which half of the binding sites on the other are occupied at equilibrium, for simple one-to-one binding. Higher therefore signals lower affinity.
